Experimental data from patent US8263340B2, “Constitutively active mutants of the prolactin receptor” (Institut National de la Sante et de la Recherche Medicale …, priority 2007, dated 2012).

Key:
WT PRLR cells = test: Effect of PRLR inhibitors on proliferation of Ba/F3 cells expressing WT PRLR; type: cell-based, murine; conditions: no PRL, 1% FCS, 3 days
Method: Cells were starved for 6 hours in 1% FCS RPMI medium with additives (no PRL), then distributed in 96 well-plates at a density of 5×10^4 cells/well in a final volume of 100 μL. One hundred μL, of [2×] hPRL (and/or antagonist) diluted in the same medium were added after starvation period. Cell survival/proliferation was estimated after 2-3 days of hormonal stimulation by adding 10-20 μL, of WST-1 tetrazolium salt, which is metabolized by living cells ([…] et al., Endocrine, 20, 177-190, 2003). Optical density at 450 nm (OD450) was measured after 1-3 hours of colorimetric reaction using an ELISA plate reader. The experiments were routinely performed at least three times in triplicate or quadruplicate. Proliferation of stable Ba/F3 cell populations was evaluated in poor medium (1% FCS) in the presence of WT hPRL, or of the PRLR antagonist De11-9-G129R-hPRL, or of AG490, for 3 days. The results are illustrated in FIGS. 12 and 13.

mutant I76V = test: Effect of PRLR inhibitors on proliferation of Ba/F3 cells expressing mutant I76V; type: cell-based, murine; conditions: 3 days
Method: (§1) Cells were starved for 6 hours in 1% FCS RPMI medium with additives (no PRL), then distributed in 96 well-plates at a density of 5×10^4 cells/well in a final volume of 100 μL. One hundred μL, of [2×] hPRL (and/or antagonist) diluted in the same medium were added after starvation period. Cell survival/proliferation was estimated after 2-3 days of hormonal stimulation by adding 10-20 μL, of WST-1 tetrazolium salt, which is metabolized by living cells (BERNICHTEIN et al., Endocrine, 20, 177-190, 2003). Optical density at 450 nm (OD450) was measured after 1-3 hours of colorimetric reaction using an ELISA plate reader. The experiments were routinely performed at least three times in triplicate or quadruplicate.
Proliferation of stable Ba/F3 cell populations was evaluated in poor medium (1% FCS) in the presence of WT hPRL, or of the PRLR antagonist De11-9-G129R-hPRL, or of AG490, for 3 days. The results are illustrated in FIGS. 12 and 13.

Ba/F3 cells [1] = type: cell-based, murine; conditions: 1% FCS; for constitutive proliferation / survival: absence of PRL
Method: Ba/F3 cells are a pro-B murine cell line dependent on IL-3 for growth. Cells were transfected by electroporation using 5-20 μg of plasmid encoding the WT or mutated human PRLR(CMV promoter), then the populations stably expressing the receptor was selected by several passages in G418-containing medium. Ba/F3-hPRLR cells were routinely maintained in RPMI 1640 medium supplemented with 10% heat-inactivated FCS, 2 mM glutamine, 50 U/mL penicillin, 50 μg/mL streptomycin, 700 μg/mL G-418 (for selection of stably transfected cells), and 10-100 ng/mL WT hPRL instead of IL-3 as the growth factor.
as §1

hPRL = test: Binding affinity of WT and mutated PRLR for hPRL, [125I]-hPRL competition with Scatchard analysis, stably transfected HEK 293 cell homogenates; design: species or system human; conditions: stable HEK 293 clones, overnight at room temperature
Method: (§2) Binding affinities of mutated PRLR for hPRL were determined using cell homogenates of stably transfected HEK 293, following a procedure previously described (KINET et al., J Biol Chem, 274, 26033-26043, 1999). Briefly, recombinant hPRL, produced in bacteria E. coli using the pT7L expression vector, and purified as described previously (PARIS et al., Biotechnol Appl Biochem, 12, 436-449, 1990), was iodinated using the Iodogen method, and its specific activity was in the range of 4-5 μCi/μg. Binding assays were performed overnight at room temperature using 150-300 μg cell homogenate protein in the presence of 20,000-30,000 cpm [^125I]-hPRL and increasing concentrations of unlabeled hPRL (competitor). Scatchard analysis was performed to determine the binding affinity of mutated PRLR and the number of PRLR per cell in stable clones or populations.

[2] = system: LHRE-luciferase reporter (Stat5); test: LHRE-luciferase reporter assay in HEK 293 cells expressing WT or mutated hPRLR; type: cell-based, human
Text: The human PRLR cDNA inserted into the pc/DNA3 eukaryotic vector (InVitrogen, Carlsbad, Calif.) has been generated as described previously (LOCHNAN et al, Mol Cell Endocrinol 114:91-99, 1995; GOFFIN et al, J Biol Chem 271:16573-16579, 1996). The PRLR-responsive LHRE-luciferase reporter gene carries the sequence encoding the firefly luciferase gene under the control of a 6-repeat sequence of the lactogenic hormone response element (LHRE) followed by the minimal thymidine kinase promoter (GOFFIN et al., J Biol Chem, 271, 16573-16579, 1996). LHRE is the DNA binding element of the signal transducer and activator of transcription Stat5, one of the signaling proteins activated by the PRLR once it is activated (WAKAO et al, EMBO J. 13, 2182-2191, 1994).
Cells were routinely cultured in DMEM medium supplemented with 10% FCS, 2 mM glutamine, 50 U/mL penicillin, 50 μg/mL streptomycin. Cells were co-transfected, using the lipofectamine method with two or three plasmids, one encoding the receptor of interest, one encoding the LHRE-firefly luciferase vector as a reporter of PRLR-mediated a effects, and one encoding the Renilla Luciferase which is expressed in a PRL-independent manner and serves as an internal control of transfection efficiency (DOS SANTOS et al., Nat Genet, 36, 720-724, 2004).
After trypsinization, cells were counted and aliquoted in 96-well plates at a density of 50,000 cells/100 μL/well. Plating medium contained 0.5% FCS to allow cell adhesion. Six to eighteen hours (overnight) after plating, cells were stimulated by addition to each well of 100 μL of PRL (1 μg/ml) diluted in FCS-free medium. After 24 hours of stimulation, culture medium was aspirated and cells were lyzed for at least 10 minutes in 50-100 μL of lysis buffer (Promega). Luciferase activity (only firefly luciferase for stable clones, and both firefly and renilla luciferases for transient transfections) for each experimental condition was counted in 10-20 μL of cell lysates for 10 seconds using a luminometer (Lumat LB 9501, Berthold, Nashua, N.H.). […]

Ba/F3 cells [3] = test: Cell cycle / apoptosis of transfected Ba/F3 stable populations by FACS (propidium iodine); type: cell-based, murine; conditions: minimal medium
Text: The cell cycle of transfected Ba/F cells (stable populations) was studied by FACS analysis, using propidium iodine labelling as previously described (JEAY et al., Endocrinology 142:147-156, 2001). Cells were put in minimal medium, with or without PRL for the indicated time.

PRLR phosphorylation = test: PRLR tyrosine phosphorylation by immunoprecipitation and western blot in transfected HEK 293 cells; type: cell-based, human
Method: Receptor phosphorylation on tyrosine residues is the first step of PRLR activation.
Transient or stable transfected cells were starved overnight in FCS-free medium before hormonal stimulation. The next day, cells were stimulated (5-30 min at 37° C.) using various concentrations of WT hPRL as indicated. At the end of the stimulation, cells were washed twice with ice-cold saline buffer and cell pellets were kept frozen until used. Cells were solubilized in 0.5-1 ml lysis buffer (30 min under gentle rotation at 4° C.). Lysates were centrifuged for 10 min at 13,000×g, then supernatants were quantified for their protein content by Bradford assay and used for immunoprecipitation.
For immunoprecipitation studies, 0.5-1 mg of total lysate were incubated with anti-human PRLR (anti extracellular domain of the human PRLR, Zymed, clone 1A2B1), used at 1-5 μl/ml. After overnight rotation at 4° C., immune complexes were captured using 20 μl Protein A Sepharose slurry for 1 additional hour rotation at 4° C. Protein A complexes were precipitated by centrifugation, pellets were washed 3 times in lysis buffer and boiled in 15 μl reducing SDS sample buffer for 5 min at 95° C. Finally, immunoprecipitated samples were analysed using 7.5% SDS-PAGE. Electrophoretic transfer onto nitrocellulose membranes (Bio-Rad) was performed as described (LLOVERA et al., Oncogene, 19, 4695-4705, 2000). […]

Stat5 = Stat5 phosphorylation by immunoprecipitation and western blot in Ba/F3 populations; type: cell-based, murine
Method: Stat5 is the main PRLR signalling mediator, and a known anti-apoptotic factor in Baf cells. Its phosphorylation was analyzed by immunoprecipitation and western blot, using the protocol described in Example 3 for the analysis of PRLR phosphorylation.
Immunoprecipitation was performed with anti-STAT5 antibodies (c17, SantaCruz). The membranes were incubated with anti-PY antibody (4G10, Upstate), and when required re-incubated with anti-STAT5 (c17, SantaCruz) antibodies.
The results are illustrated by FIG. 16: (−)=no PRL, (+)=0,5 μg/ml PRL.

mutated PRLR = test: Binding affinity of the PRLR antagonist for mutated and WT PRLR (not shown); design: species or system human
Method: as §2
Similarly, the affinity for the pure PRLR antagonist De11-9-G129R-hPRL (BERNICHTEIN et al., J Biol Chem, 278, 35988-35999, 2003) is also identical for the mutants and the receptors (not shown).

In the case of N#CC(=Cc1ccc(O)c(O)c1)C(=O)NCc1ccccc1 [AG490, N-Benzyl-3,4-dihydroxy-benzylidenecyanoacetamide, reference compound], the “effect on basal proliferation of WT PRLR cells” value (WT PRLR cells) is reported as “no effect” and the “inhibition of constitutive activation (proliferation) of mutant I76V” value (mutant I76V; 20 μM AG490, no PRL) is reported as “partially inhibited”.

In the case of “wild-type PRLR: wild-type human prolactin receptor (isoform 1), SEQ ID NO: 1, used as control”, the “constitutive proliferation / survival” value (Ba/F3 cells [1]) is reported as “hardly survived”, the Kd (hPRL) is reported as 0.64 nM and the “basal activity (unstimulated cells), luciferase” value ([2]; no PRL, compared to WT receptor) is reported as “devoid of activity”. The “fold stimulation induced by PRL” value ([2]; stable clones, PRL 1 μg/ml, 24 hours) was 8 fold, the apoptosis (Ba/F3 cells [3]; absence of PRL, 30 h) was 50% and the “effect of PRL on apoptosis” value (Ba/F3 cells [3]; with PRL) was “PRL prevents this effect”.

B1: I76V: mutant human prolactin receptor wherein the Ile residue at position 76 is substituted by a Val residue (protein)
chain: QLPPGKPEIFKCRSPNKETFTCWWRPGTDGGLPTNYSLTYHREGETLMHECPDYITGGPNSCHFGKQYTSMWRTYVMMVNATNQMGSSFSDELYVDVTYIVQPDPPLELAVEVKQPEDRKPYLWIKWSPPTLIDLKTGWFTLLYEIRLKPEKAAEWEIHFAGQQTEFKILSLHPGQKYLVQVRCKPDHGYWSAWSPATFIQIPSDFTMNDTTVWISVAVLSAVICLIIVWAVALKGYSMVTCIFPPVPGPKIKGFDAHLLEKGKSEELLSALGCQDFPPTSDYEDLLVEYLEVDDSEDQHLMSVHSKEHPSQGMKPTYLDPDTDSGRGSCDSPSLLSEKCEEPQANPSTFYDPEVIEKPENPETTHTWDPQCISMEGKIPYFHAGGSKCSTWPLPQPSQHNPRSSYHNITDVCELAVGPAGAPATLLNEAGKDALKSSQTIKSREEGKATQQREVESFHSETDQDTPWLLPQEKTPFGSAKPLDYVEIHKVNKDGALSLLPKQRENSGKPKKPGTPENNKEYAKVSGVMDNNILVLVPDPHAKNVACFEESAKEAPPSLEQNQAEKALANFTATSSKCRLQLGGLDYLDPACFTHSFH
For B1, the “constitutive phosphorylation of PRLR” value (PRLR phosphorylation; absence of PRL stimulation) was “weaker”, the “effect of PRL stimulation on PRLR phosphorylation” value (PRLR phosphorylation; with PRL stimulation) was “increased phosphorylation” and the “effect of PRL on proliferation” value (Ba/F3 cells [1]; 10 or 100 ng/ml hPRL) was “further increased”. The “constitutive proliferation / survival” value (Ba/F3 cells [1]) was “moderate but significant constitutive proliferation”, the Kd (hPRL) was 0.44 nM and the “effect of PRL stimulation on phosphorylation of Stat5” value (Stat5; 0,5 μg/ml PRL) was “can be increased”. The “phosphorylation of Stat5” value (Stat5; absence of PRL stimulation) was “moderate” and the fold induction ([2]; transient transfections, normalized firefly/renilla luciferase) was 5 fold.

B2: De11-9-G129R-hPRL: pure PRLR antagonist, variant of human prolactin, which interferes with the mechanism of receptor activation by PRL (protein)
chain: RCQVTLRDLFDRAVVLSHYIHNLSSEMFSEFDKRYTHGRGFITKAINSCHTSSLATPEDKEQAQQMNQKDFLSLIVSILRSWNEPLYHLVTEVRGMQEAPEAILSKAVEIEEQTKRLLERMELIVSQVHPETKENEIYPVWSGLPSLQMADEESRLSAYYNLLHCLRRDSHKIDNYLKLLKCRIIHNNNC
B2 was tested, and the “effect on basal proliferation of WT PRLR cells” value (WT PRLR cells) was “no effect”, the “inhibition of constitutive activation (proliferation) of mutant I76V” value (mutant I76V; 10 μg/ml antagonist, no PRL) was “inhibited” and the “affinity for mutants versus WT receptor” value (mutated PRLR) was “identical”.
